{
  "source": "the PETadex activity labels (doi:10.1002/cbic.201800097)",
  "key": {"PET [1]": {"substrate": "PET", "assay": "Proxy for plastic degradation [Released monomer concentration (HPLC/LC-MS) (TPA)]"}, "PET [2]": {"substrate": "PET", "assay": "Proxy for plastic degradation [Released monomer concentration (HPLC/LC-MS) (MHET)]"}, "BHET": {"substrate": "BHET", "assay": "Proxy for plastic degradation [Released monomer concentration (HPLC/LC-MS) (MHET+TPA)]"}, "[3]": {"details": "pH 10.5, part of the chain shown"}},
  "data": [
    {"protein": "unnamed (protein) NPYARGPNPTAASLEASAGPFTVRSFTVSRPSGYGAGTVYYPTNAGGTVGAIAIVPGYTARQSSIKWWGPRLASHGFVVITIDTNSTLDQPSSRSSQQMAALRQVASLNGTSSSPIYGKVDTARMGVMGWSMGGGGSLISAANNPSLKAAAPQAPWDSSTNFSSVTVPTLIFACENDSIAPVNSSALPIYDSMSRNAKQFLEINGGSHSCAASGNSNQALIGKKGVAWMKRFMDNDTRYSTFACENPNSTRVSDFRTANCS", "values": [
      {"measurement": "Proxy for plastic degradation", "setting": "PET [1]; pH 9", "value": 0, "unit": "nM"},
      {"measurement": "Proxy for plastic degradation", "setting": "PET [2]; pH 9", "value": 1.5, "unit": "nM"}
    ]},
    {"protein": "unnamed (protein) NPYARGPNPTAASLEASAGPFTVRSFTVSRPSGYGAGTVYYPTNAGGTVGAIAIVPGYTARQSSIKWWGPRLASHGFVVITIDTNSTLDAPSSRSSQQMAALRQVASLNGTSSSPIYGKVDTARMGVMGWSMGGGGSLISAANNPSLKAAAPQAPWDSSTNFSSVTVPTLIFACENDSIAPVNSSALPIYDSMSRNAKQFLEINGGSHSCANSGNSNQALIGKKGVAWMKRFMDNDTRYSTFACENPNSTRVSDFRTANCS", "values": [
      {"measurement": "Proxy for plastic degradation", "setting": "PET [1]; pH 9", "value": 6, "unit": "nM"},
      {"measurement": "Proxy for plastic degradation", "setting": "BHET; pH 7.5", "value": 0.94, "unit": "µM"}
    ]},
    {"protein": "unnamed (protein) NPYARGPNPTAASLEASAGPFTVRSFTVSRPSGYGAGTVYYPTNAGGTVGAIAIVPGYTARQSSIKWLGPRLASHGFVVITIDTNSTLDQPSSRSSQQMAALRQVASLNGTSSSPIYGKVDTARMGVMGWSMGGGGSLISAANNPSLKAAAPQAPWDSSTNFSSVTVPTLIFACENDSIAPVNSSALPIYDSMSRNAKQFLEINGGSHSCANSGNSNQALIGKKGVAWMKRFMDNDTRYSTFACENPNSTRVSDFRTANCS", "values": [
      {"measurement": "Proxy for plastic degradation", "setting": "PET [1]; pH 9", "value": 0, "unit": "nM"},
      {"measurement": "Proxy for plastic degradation", "setting": "PET [2]; pH 9", "value": 0, "unit": "nM"},
      {"measurement": "Proxy for plastic degradation", "setting": "BHET; pH 7.5", "value": 0.18, "unit": "µM"}
    ]},
    {"protein": "unnamed (protein) NPYARGPNPTAASLEASAGPFTVRSFTVSRPSGYGAGTVYYPTNAGGTVGAIAIVPGYTARQSSIKWWGPRLASHGFVVITIDTNSTLDQPSSRSSQQMAALRQVASLNGTSSSPIYGKVDTARMGVMGWSMGGGGSLISAANNPSLKAAAPQAPADSSTNFSSVTVPTLIFACENDSIAPVNSSALPIYDSMSRNAKQFLEINGGSHSCANSGNSNQALIGKKGVAWMKRFMDNDTRYSTFACENPNSTRVSDFRTANCS", "values": [
      {"measurement": "Proxy for plastic degradation", "setting": "PET [1]; pH 9", "value": 2, "unit": "nM"},
      {"measurement": "Proxy for plastic degradation", "setting": "PET [2]; pH 9", "value": 1.5, "unit": "nM"}
    ]},
    {"protein": "unnamed (protein) NPYARGPNPTAASLEASAGPFTVRSFTVSRPSGYGAGTVYYPTNAGGTVGAIAIVPGYTARQSSIKWWGPRLASHGFVVITIDTNSTLDQPSSRSSQQMAALRQVASLNGTSSSPIYGKVDTARMGVMGWSMGGGGSLISAANNPSLKAAAPQAPWDSSTNFSSVTVPTLIFACENDSIIPVNSSALPIYDSMSRNAKQFLEINGGSHSCANSGNSNQALIGKKGVAWMKRFMDNDTRYSTFACENPNSTRVSDFRTANCS", "values": [
      {"measurement": "Proxy for plastic degradation", "setting": "PET [1]; pH 9", "value": 11, "unit": "nM"},
      {"measurement": "Proxy for plastic degradation", "setting": "PET [2]; pH 9", "value": 13, "unit": "nM"}
    ]},
    {"protein": "unnamed (protein) MNFPRASRLMQAAVLGGLMAVSAAATAQTNPYARGPNPTAASLEASAGPFTVRSFTVSRPSGYGAGTVYYPTNAGGTVGAIAIVPGYTARQSSIKWWGPRLASHGFVVITIDTNSTLDQPSSRSSQQMAALRQVASLNGTSSSPIYGKVDTARMGVMGWSMGGGGSLISAANNPSLKAAAPQAPWDSSTNFSSVTVPTLIFACENDSIAPVNSSALPIYDSMSRNAKQFLEINGGSHSCANSGNSNQALIGKKGVAWMKRFMDNDTRYSTFACENPNSTRVSDFRTANCS", "values": [
      {"measurement": "Proxy for plastic degradation", "setting": "PET [1]; pH 8, part of the chain shown", "value": 0, "unit": "nM"},
      {"measurement": "Proxy for plastic degradation", "setting": "PET [1]; pH 10, part of the chain shown", "value": 0, "unit": "nM"},
      {"measurement": "Proxy for plastic degradation", "setting": "PET [1]; [3]", "value": 0, "unit": "nM"},
      {"measurement": "Proxy for plastic degradation", "setting": "PET [2]; 25 °C, part of the chain shown", "value": 1300, "unit": "nM"},
      {"measurement": "Proxy for plastic degradation", "setting": "PET [2]; 30 °C, part of the chain shown", "value": 5300, "unit": "nM"},
      {"measurement": "Proxy for plastic degradation", "setting": "PET [2]; 35 °C, part of the chain shown", "value": 2200, "unit": "nM"},
      {"measurement": "Proxy for plastic degradation", "setting": "PET [2]; 40 °C, part of the chain shown", "value": 0, "unit": "nM"},
      {"measurement": "Proxy for plastic degradation", "setting": "PET [2]; pH 9, 25 °C, part of the chain shown", "value": 10.5, "unit": "nM"},
      {"measurement": "Proxy for plastic degradation", "setting": "PET [2]; pH 9, 30 °C, part of the chain shown", "value": 12.9, "unit": "nM"},
      {"measurement": "Proxy for plastic degradation", "setting": "PET [2]; pH 9, 35 °C, part of the chain shown", "value": 8, "unit": "nM"},
      {"measurement": "Proxy for plastic degradation", "setting": "PET [2]; pH 9, 40 °C, part of the chain shown", "value": 5.5, "unit": "nM"},
      {"measurement": "Proxy for plastic degradation", "setting": "PET [2]; pH 9, part of the chain shown", "value": 12700, "unit": "nM"},
      {"measurement": "Proxy for plastic degradation", "setting": "PET [2]; [3]", "value": 0, "unit": "nM"},
      {"measurement": "Proxy for plastic degradation", "setting": "BHET; pH 5, part of the chain shown", "value": 0.58, "unit": "µM"},
      {"measurement": "Proxy for plastic degradation", "setting": "BHET; pH 5.5, part of the chain shown", "value": 0.9, "unit": "µM"},
      {"measurement": "Proxy for plastic degradation", "setting": "BHET; pH 6, part of the chain shown", "value": 1.51, "unit": "µM"},
      {"measurement": "Proxy for plastic degradation", "setting": "BHET; pH 6.5, part of the chain shown", "value": 1.72, "unit": "µM"},
      {"measurement": "Proxy for plastic degradation", "setting": "BHET; pH 7, part of the chain shown", "value": 1.72, "unit": "µM"},
      {"measurement": "Proxy for plastic degradation", "setting": "BHET; pH 7.5, 25 °C, part of the chain shown", "value": 0.95, "unit": "µM"},
      {"measurement": "Proxy for plastic degradation", "setting": "BHET; pH 7.5, 30 °C, part of the chain shown", "value": 1.75, "unit": "µM"},
      {"measurement": "Proxy for plastic degradation", "setting": "BHET; pH 7.5, 35 °C, part of the chain shown", "value": 1.04, "unit": "µM"},
      {"measurement": "Proxy for plastic degradation", "setting": "BHET; pH 7.5, 40 °C, part of the chain shown", "value": 0.65, "unit": "µM"},
      {"measurement": "Proxy for plastic degradation", "setting": "BHET; pH 7.5, 45 °C, part of the chain shown", "value": 0.3, "unit": "µM"},
      {"measurement": "Proxy for plastic degradation", "setting": "BHET; pH 7.5, 50 °C, part of the chain shown", "value": 0.17, "unit": "µM"},
      {"measurement": "Proxy for plastic degradation", "setting": "BHET; pH 7.5, 55 °C, part of the chain shown", "value": 0.14, "unit": "µM"},
      {"measurement": "Proxy for plastic degradation", "setting": "BHET; pH 7.5, 60 °C, part of the chain shown", "value": 0.16, "unit": "µM"},
      {"measurement": "Proxy for plastic degradation", "setting": "BHET; pH 8, part of the chain shown", "value": 1.65, "unit": "µM"},
      {"measurement": "Proxy for plastic degradation", "setting": "BHET; pH 8.5, part of the chain shown", "value": 1.47, "unit": "µM"},
      {"measurement": "Proxy for plastic degradation", "setting": "BHET; pH 9, part of the chain shown", "value": 1.1, "unit": "µM"},
      {"measurement": "Proxy for plastic degradation", "setting": "BHET; pH 9.5, part of the chain shown", "value": 0.47, "unit": "µM"}
    ]}
  ]
}
